B1: J2 (Jointless-2, Solyc12g038510) SEP4-homolog MADS-box protein (other)
chain: MGRGRVELKRIENKINRQVTFAKRRNGLLKKAYELSILCDAEVALIIFSSRGKLYEFSSASSMMTTLEKYQQCSYASLDPMLPVSDTQMNYNEYVRLKARVELLQRSQRHILGEDLGTLNSKELEQLEHQLDASLKKVRSKKTQSMLDQLADLQEKEQMLEEANKQLKNKLEESAARIPLGLSWGNNGGQTMEYNRLPPQTTAQPFFQPLRLNSSSPQFGYNPNMGANDHEVNAATTAHNINGFIPGWML
B2: EJ2 (Enhancer-of-Jointless-2, Solyc03g114840) SEP4-homolog MADS-box protein (other)
chain: MGRGRVELKRIENKINRQVTFAKRRNGLLKKAYELSVLCDAEVALIIFSNRGKLYEFCSTSSMVKTIEKYQRCSYATLEANQSVTDTQNNYHEYLRLKARVELLQRSQRNFLGEDLGTLSSKDLEQLENQLESSLKQIRSRKTQFMLDQLADLQQKEQMLAESNRLLRRKLEESVAGFPLRLCWEDGGDHQLMHQQNRLPNTEGFFQPLGLHSSSPHFGYNPVNTDEVNAAATAHNMNGFIHGWML

Experiments:
[1] = target: the molecule itself; assay: yeast two-hybrid, FIG. 5C
Description: (§1) Protein interaction assays in yeast were performed using the Matchmaker Gold Yeast Two-Hybrid System (Clontech) as described before (Park et al., 2014b). The coding sequences for bait proteins were cloned into the pGBKT7 vector, and the resulting vectors were transformed into the Y2HGold yeast strain. The coding sequences for prey proteins were cloned into the pGADT7 AD vector, and the resulting vectors were transformed into the Y187 yeast strain. After mating the two yeast strains expressing bait and prey proteins, diploid yeast cells were selected and grown on dropout medium without leucine and tryptophan. To assay protein-protein interactions, clones were grown on triple-dropout medium without leucine, tryptophan, and histidine for 3 d at 30° C. To block auto-activation, 3 mM 3-amino-1,2,4-triazole (3-AT) were added or adenine was removed from the triple-dropout medium. All primer sequences used for cloning can be found in Table 2.

[2] = target: the molecule itself; assay: yeast two-hybrid (Matchmaker Gold; growth on -L-T-H medium)
Description: as §1

Protein | binding result [1] | binding result [2]
B1 | binds | –
B2 | – | no binding

— patent US20200299706A1 (COLD SPRING HARBOR LABORATORY, published 2020)
